How the values were obtained:
PhoGRHPR = target: T1, PhoGRHPR (Pyrococcus horikoshii, UniProt O58320); assay: NAD(P)H absorbance at […] nm, substrate inhibition fit; assay type: biochemical; details: NADH 0.5 mM, Tris-HCl 100 mM pH 8.0, 50 °C
T1 construct: gene gyaR; synthetic codon-optimised gene in pET41c, E. coli BL21(DE3)-RIL; no tag mentioned; heat step 85 °C, Resource Q, Superose 12; 66 kDa homodimer
T1 sequence (O58320 1-334): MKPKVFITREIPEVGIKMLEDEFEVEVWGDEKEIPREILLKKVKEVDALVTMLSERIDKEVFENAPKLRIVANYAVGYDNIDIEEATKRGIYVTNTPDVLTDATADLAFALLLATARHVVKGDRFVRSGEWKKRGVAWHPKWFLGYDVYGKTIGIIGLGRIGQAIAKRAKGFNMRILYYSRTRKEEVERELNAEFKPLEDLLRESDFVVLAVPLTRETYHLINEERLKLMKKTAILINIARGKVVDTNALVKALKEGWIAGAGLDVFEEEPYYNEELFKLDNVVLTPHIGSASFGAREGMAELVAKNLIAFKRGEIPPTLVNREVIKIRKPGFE

PyaGRHPR [1] = target: T2, PyaGRHPR (Pyrococcus yayanosii, UniProt F8AEA4); assay: as above; assay type: biochemical; details: NADH 0.5 mM, Tris-HCl 100 mM pH 8.0, 50 °C
T2 construct: gene gyaR; synthetic codon-optimised gene in pET41c, E. coli BL21(DE3)-RIL; no tag mentioned; heat step 85 °C, Resource Q, Superose 12; 66 kDa homodimer
T2 sequence (F8AEA4 1-333): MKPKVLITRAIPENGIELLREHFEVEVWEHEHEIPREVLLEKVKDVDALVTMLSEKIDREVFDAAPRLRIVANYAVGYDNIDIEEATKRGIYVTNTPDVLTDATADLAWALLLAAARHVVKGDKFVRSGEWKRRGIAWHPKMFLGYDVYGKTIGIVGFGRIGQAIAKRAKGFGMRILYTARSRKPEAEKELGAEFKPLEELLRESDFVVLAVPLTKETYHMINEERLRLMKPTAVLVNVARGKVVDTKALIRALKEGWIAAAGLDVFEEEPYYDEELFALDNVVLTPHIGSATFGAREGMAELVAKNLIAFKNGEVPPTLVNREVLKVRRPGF

PfuGRHPR [2] = target: T3, PfuGRHPR (Pyrococcus furiosus, UniProt Q8U3Y2); assay: as above; assay type: biochemical; details: NADH 0.5 mM, Tris-HCl 100 mM pH 8.0, 50 °C
T3 construct: gene gyaR; synthetic codon-optimised gene in pET41c, E. coli BL21(DE3)-RIL; no tag mentioned; heat step 85 °C, Resource Q, Superose 12; 66 kDa homodimer
T3 sequence (Q8U3Y2 1-336): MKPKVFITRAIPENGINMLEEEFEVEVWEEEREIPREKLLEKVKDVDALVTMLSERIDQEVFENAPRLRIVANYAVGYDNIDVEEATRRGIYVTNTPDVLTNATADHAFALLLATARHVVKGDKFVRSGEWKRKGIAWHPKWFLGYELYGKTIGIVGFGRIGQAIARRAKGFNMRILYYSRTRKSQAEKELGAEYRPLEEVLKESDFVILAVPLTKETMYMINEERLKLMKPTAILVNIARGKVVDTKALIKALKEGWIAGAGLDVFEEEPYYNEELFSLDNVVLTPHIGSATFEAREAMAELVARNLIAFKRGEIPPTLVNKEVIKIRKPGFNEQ

PyaGRHPR [3] = target: T2, PyaGRHPR; assay: NAD(P)H absorbance at […] nm; assay type: biochemical; details: co-substrate hydroxypyruvate or glyoxylate, Tris-HCl 100 mM pH 8.0, 50 °C
PfuGRHPR [4] = target: T3, PfuGRHPR; assay: NAD(P)H absorbance at […] nm; assay type: biochemical; details: co-substrate hydroxypyruvate or glyoxylate, Tris-HCl 100 mM pH 8.0, 50 °C
PfuGRHPR [5] = target: T3, PfuGRHPR; assay: crystal structure […] Å; assay type: binding
PyaGRHPR [6] = target: T2, PyaGRHPR; assay: crystal structure […] Å; assay type: binding; details: copurified
purified protein [7] = substrate: O=CC(=O)O; assay: purified protein; assay type: biochemical, Pyrococcus furiosus; details: NADH 0.5 mM, Tris-HCl 100 mM pH 8.0, 50 °C
purified protein [8] = substrate: O=C(O)C(=O)CO; assay: purified protein; assay type: biochemical, Pyrococcus furiosus; details: NADH 0.5 mM, Tris-HCl 100 mM pH 8.0, 50 °C
purified protein [9] = substrate: O=CC(=O)O; assay: purified protein; assay type: biochemical, Pyrococcus horikoshii; details: NADH 0.5 mM, Tris-HCl 100 mM pH 8.0, 50 °C
purified protein [10] = substrate: O=C(O)C(=O)CO; assay: purified protein; assay type: biochemical, Pyrococcus horikoshii; details: NADH 0.5 mM, Tris-HCl 100 mM pH 8.0, 50 °C
purified protein [11] = substrate: O=CC(=O)O; assay: purified protein; assay type: biochemical, Pyrococcus yayanosii; details: NADH 0.5 mM, Tris-HCl 100 mM pH 8.0, 50 °C
purified protein [12] = substrate: O=C(O)C(=O)CO; assay: purified protein; assay type: biochemical, Pyrococcus yayanosii; details: NADH 0.5 mM, Tris-HCl 100 mM pH 8.0, 50 °C

With O=C(O)C(=O)CO [hydroxypyruvate] the “PhoGRHPR / NADH” value (PhoGRHPR) was 3820 ± 680 µM, the “PyaGRHPR / NADH” value (PyaGRHPR [1]) was 760 ± 200 µM and the “PfuGRHPR / NADH” value (PfuGRHPR [2]) was 350 ± 140 µM.

In the case of NC(=O)C1=CN([C@@H]2O[C@H](COP(=O)(O)OP(=O)(O)OC[C@H]3O[C@@H](n4cnc5c(N)ncnc54)[C@H](O)[C@@H]3O)[C@@H](O)[C@H]2O)C=CC1 [NADH], the KM (PyaGRHPR [3]) is reported as “Archaeal GRHPR presents higher affinity for NADPH compared to NADH” and the KM (PfuGRHPR [4]) is reported as “Archaeal GRHPR presents higher affinity for NADPH compared to NADH”.

With NC(=O)C1=CN([C@@H]2O[C@H](COP(=O)(O)OP(=O)(O)OC[C@H]3O[C@@H](n4cnc5c(N)ncnc54)[C@H](OP(=O)(O)O)[C@@H]3O)[C@@H](O)[C@H]2O)C=CC1 [NADPH] the “crystal structure 1.40 Å” value (PfuGRHPR [5]; ternary complex with glyoxylate, copurified, modelled as NADP(H), oxidation state not resolved) was “Both structures include a cofactor molecule, unambiguously modeled as NADP(H)”, the “crystal structure 2.0 Å” value (PyaGRHPR [6]; ternary complex with D-glycerate, modelled as NADP(H), oxidation state not resolved) was “Both structures include a cofactor molecule, unambiguously modeled as NADP(H)” and the KM (PyaGRHPR [3]) was “Archaeal GRHPR presents higher affinity for NADPH compared to NADH”. For the same molecule, the KM (PfuGRHPR [4]) was “Archaeal GRHPR presents higher affinity for NADPH compared to NADH”.

For O=C(O)[C@H](O)CO [D-glycerate], the “crystal structure 2.0 Å” value (PyaGRHPR [6]; ternary complex with NADP(H), active site, density did not distinguish D-glycerate from hydroxypyruvate) was “The PyaGRHPR structure contains D-glycerate, product of HPR activity”.

With O=CC(=O)O [glyoxylate] the “crystal structure 1.40 Å” value (PfuGRHPR [5]; ternary complex with NADP(H), ligand carried over from E. coli, active site, further molecule in tunnel) was “the determination of the PfuGRHPR structure reveals a ternary complex in the presence of glyoxylate”.

B1: PfuGRHPR (Pyrococcus furiosus DSM 3638) (protein)
chain: T3 sequence (Q8U3Y2 1-336)
notes: synthetic codon-optimised gene in pET41c, E. coli BL21(DE3)-RIL; no tag mentioned; heat step 85 °C, Resource Q, Superose 12; 66 kDa homodimer
Molecule B1 has a Km (purified protein [7]) of 1800 ± 25 µM, a kcat (purified protein [7]) of 13 ± 0.5 s⁻¹ and a kcat/Km (purified protein [7]) of 7000 ± 500 M⁻¹ s⁻¹. The Km (purified protein [8]) was 140 ± 55 µM, the kcat (purified protein [8]) was 10 ± 5 s⁻¹ and the kcat/Km (purified protein [8]) was 75000 ± 50000 M⁻¹ s⁻¹.

B2: PhoGRHPR (Pyrococcus horikoshii OT3) (protein)
chain: T1 sequence (O58320 1-334)
notes: as for B1
For B2, the Km (purified protein [9]) was 160 ± 25 µM, the kcat (purified protein [9]) was 4 ± 0.5 s⁻¹ and the kcat/Km (purified protein [9]) was 25000 ± 5000 M⁻¹ s⁻¹. The Km (purified protein [10]) was 70 ± 11 µM, the kcat (purified protein [10]) was 4.5 ± 0.5 s⁻¹ and the kcat/Km (purified protein [10]) was 65000 ± 20000 M⁻¹ s⁻¹.

B3: PyaGRHPR (Pyrococcus yayanosii CH1) (protein)
chain: T2 sequence (F8AEA4 1-333)
notes: as for B1
B3 was tested, and the Km (purified protein [11]) was 1500 ± 140 µM, the kcat (purified protein [11]) was 4.8 ± 0.2 s⁻¹ and the kcat/Km (purified protein [11]) was 3000 ± 500 M⁻¹ s⁻¹. For the same molecule, the Km (purified protein [12]) was 410 ± 110 µM, the kcat (purified protein [12]) was 25 ± 5 s⁻¹ and the kcat/Km (purified protein [12]) was 60000 ± 25000 M⁻¹ s⁻¹.

Source: article PMC4749974, “New insights into the mechanism of substrates trafficking in Glyoxylate/Hydroxypyruvate reductases” (Scientific Reports, 2016)
